Measurements from publication PMC6375729 (Molecular Cell, 2019).
Where no end group is shown, it is not given here.

Columns and labels:
Settings in all cases: both partners purified
[1] = target: BRD4 second bromodomain (BD2), D334-E460 (human, UniProt O60885-1 334-460); assay: ITC; peptide in the syringe titrated into protein in the cell; 15 °C; 50 mM HEPES pH 7.5, 150 mM NaCl; single binding site model
[2] = target: BRD4 first bromodomain (BD1), N44-E168 (human, UniProt O60885-1 44-168); assay: as above
[3] = target: hexa-His-tagged BRD4 extra-terminal domain (BRD4/ET) (human, UniProt O60885-1 589-676); assay: peptide or protein array; cellulose SPOT peptide arrays probed with hexa-His-tagged BRD4 domains, detected with HRP-conjugated anti-His antibody

RRRK(Ac)RFK(Ac)RHQ [FOXD3 K235ac/K238ac peptide]
Kd [1]: 7.75 ± 0.12 µM | stoichiometry N [1]: 0.75 ± 0.029 | Kd [2]: 63.6 ± 1.6 µM | stoichiometry N [2]: 0.64 ± 0.026

LTNK(Ac)GHK(Ac)WKQ [DMTF1 K147ac/K150ac peptide]
Kd [1]: 29.4 ± 1.84 µM | stoichiometry N [1]: 1.1 ± 0.031 | Kd [2]: 70.4 ± 3 µM | stoichiometry N [2]: 0.99 ± 0.061

NSNK(Ac)YTK(Ac)SRG [FOXO3 K259ac/K262ac peptide]
Kd [2]: 158 ± 20.1 µM | stoichiometry N [2]: 0.58 ± 0.385

DGGK(Ac)SGK(Ac)APR [FOXO3 K242ac/K245ac peptide]
Kd [1]: 44.4 ± 2.89 µM | stoichiometry N [1]: 0.64 ± 0.021 | Kd [2]: 16.4 ± 0.5 µM | stoichiometry N [2]: 0.49 ± 0.005

IHCK(Ac)AGK(Ac)GRT [PTEN K125ac/K128ac peptide]
Kd [1]: 44.8 ± 3.03 µM | stoichiometry N [1]: 0.6 ± 0.021 | Kd [2]: 137 ± 16.9 µM | stoichiometry N [2]: 0.81 ± 0.082

B1: RPS26 peptide region, residues 31-48 (SPOT) (peptide, UniProt P62854 31-48, looked up)
peptide: PKDKAIKKFVIRNIVEAA
notes: RPS26 residues 31-48, motif printed as KFVIK; source: synthesised on cellulose membrane (SPOT)
binding result [3]: binds

B2: WHSC1L1 peptide, amino acids 147–162 (SPOT) (peptide, UniProt Q9BZ95 147-162, looked up)
peptide: KTGSPEIKLKITKTIQ
notes: source: synthesised on cellulose membrane (SPOT)
binding result [3]: binds

HFAK(Ac)ARK(Ac)VPS [FOXN3 K426ac/K429ac peptide]
Kd [1]: 25.7 ± 1.8 µM | stoichiometry N [1]: 0.59 ± 0.018 | Kd [2]: 37.8 ± 3.61 µM | stoichiometry N [2]: 0.62 ± 0.311
